Data on 4 substances can be found in article PMC4145800.

The target in assay [1] is wild-type (polymerization-competent) yeast αβ-tubulin (yeast) (UniProt P09733). The assay can be described thus: AUC; sedimentation velocity; seven concentrations of TOG1 or TOG2 (44 nM-4.5 μM) titrated into 0.35 μM αβ-tubulin; 1:1 binding isotherm fitted; RB100 with 20 μM GTP, 20°C.
Assay [2] shares this target. In words: AUC; sedimentation velocity; TOG1-TOG2 or its mutants mixed with αβ-tubulin (∼5 molar equivalents of αβ-tubulin; seven concentrations of TOG1-TOG2 with 0.3 μM αβ-tubulin); two-site binding model; RB100 with 20 μM GTP, 20°C.

Regarding “TOG1 domain from Stu2p, TOG1(1-317) (from UniProt P46675 1-317) (domain or fragment)”, in assay [1], the Kd (as a rule, the equilibrium constant for the complex coming apart) turned out to be 70 nM and the stoichiometry N (commonly the number of molecules, sites or subunits per partner or assembly) is 1.
Take “TOG1-TOG2 of Stu2p with the mutation printed as W314A (from UniProt P46675 1-560) (domain or fragment)”: in assay [2], the stoichiometry N (αβ-tubulin per TOG1-TOG2) stood at 1.
The same measure, in the same setting: next, “TOG1-TOG2 of Stu2p with the mutation R519A (from UniProt P46675 1-560) (domain or fragment)”: 1.
For the substance “TOG1-TOG2(1-560) of Stu2p (from UniProt P46675 1-560) (domain or fragment)”, in assay [2], the stoichiometry N (αβ-tubulins per TOG1-TOG2) was found to be 2.
